Measurements: the supplement of paper PMC12764529
± gives the half width of the 95% confidence interval.

test: folding stability dG unfold from trypsin proteolysis; higher = more stable
Summary of the method: (§1)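 Designed mini-proteins (under 80 residues, no cysteine) in a PA-tagged cDNA display construct were digested with trypsin and chymotrypsin. Each protease was used at 11 concentrations (threefold dilutions) plus a no-protease condition, followed by sequencing. K50 was inferred by Bayesian fitting of sequencing counts, and unfolding free energy was derived against a sequence-predicted unfolded-state K50 and a shared folded-state K50, per protease or combined. Only designs with AlphaFold2 dimer inter-PAE above 15 were kept.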

Row | Sequence | folding stability dG unfold [kJ/mol]
1 | SAGGSAGGSEITILIKDENGYLIKVKVELKLKKNKDGKKTLELKIEITEIYKVPSKEEAKKLLSAGGSAGGS [r12_915_TrROS_Hall] | 3.16 ± 0.418
2 | SAPLSEEEARQLLEEVAEELERETGASYRVELFRDPATGRWFGRIELPDGRVYTVTYDPATGEVTVTVEASA [r9_9_JUSTAS] | 17.8 ± 0.418
3 | SAGGAEELAKRLAEELREAGYEVEVVKVERLENGEVVITMKVRVVKDGKEVEEREIKLVLKLPEELLSAGGS [r8_102_TrROS_Hall] | 16.4 ± 0.406
4 | MYLVRIKIEYKTEDGEKVEKEITLLVEPSEEEAKEKAEELARKIAEELGLSEEEIKKIEVEVVKLGEELEES [r1_159_TrROS_Hall] | 17 ± 0.92
5 | SADRIKINVMTHQSPDGRPYYMVSIRIPGNGKEIMGPIDSPEDAEEQAKEIADKLEKEGIPIEVEIYPMSAG [r14_263_TrROS] | 8.93 ± 0.276
6 | SAGGGPLSPGSVPVEEEVTEVVEDPATGTVTTRSRVRYPDGVEVEVTTTTPAPGLPEVSTTEVTVRPASAGG [r13_894_JUSTAS] | 4.09 ± 0.184
7 | SAGGSAGGMKTVTTPVYAVMPEEEAEALAKELEEKYPNVEIEVEREELPDGRVRVTITVTKPLGSAGGSAGG [r6_105_JUSTAS] | 4.99 ± 0.092
8 | SAGGSAGGSAGGPKVEVTVKGKPATVEWFPEEGKARVTVPDGRVYVLDLNGDKLEIKPLSAGGSAGGSAGGS [r10_724_TrMRF] | 1.08 ± 0.172
9 | SAGGSAGGMKVYEIEVPPSSGLTPEEIRARVREEIEASNNAPVEVTVEVDPNGRLTVTIKITPLSAGGSAGG [r6_819_JUSTAS] | 7.66 ± 0.151
10 | SGMDSNPKTTTENISFEEALKRLPSSVTSVEPRGESVVIKQSSPDSLTVVTMTRDPSSDSAPATTTTYLSSA [r9_604_JUSTAS] | 1.27 ± 0.364
11 | SAGMILPPNTVVTLSTTTTEELPLFTDGSGPRTTTTETVVTVEPVPVNPYPDPAVREKLLAEGKPLELLSAG [r5_624_JUSTAS] | -2.14 ± 0.544
12 | SAGGSAGGSAGPKPPPVYRLRIVNPDGEVYEFEVPADMSPEEIAKRLGLPPGARVELEKVSAGGSAGGSAGG [r11_340_TrROS_Hall] | 10.8 ± 0.711
13 | SAGGSAMVETKTFEFEFEFEFENPDGEPATVTVPVTVEVPVLVPVAAPGPPGANGPEKELEELEKESAGGSA [r15_728_TrMRF] | 4.41 ± 0.402
14 | SAGGSAGGSAGGSIPPSDVTTEVDPNTPLTTVTYPSGVVVTETFPPDGTSTTTVDTAAGSAGGSAGGSAGGS [r10_170_JUSTAS] | 8.39 ± 0.159
15 | SAGGSAGGWIIRIHFPNGHEHTFKIKSPEEAKDRIMDHHGMPPDKIPPETIKDVEIIPPDAMKESAGGSAGG [r6_588_TrROS] | -0.158 ± 0.46
16 | SAKKVKIEIKNKETNKIYTIEIKEDGKVTIKNKETGEEIEVEINGKKITFPPGASIDEIIKKLEEALKKSAG [r14_561_TrROS_Hall] | 7.2 ± 0.669
17 | SAGGSAGGSAGGSIVIEVDTLEEAKKLAEKLNLKVTEVKEVDGKLYVKIEIKSPEELKKSAGGSAGGSAGGS [r10_218_TrROS_Hall] | 0.854 ± 0.46
18 | SAGSPATLRAQAEEEARALAAELGAEVTVDVTVEPVPGEYVVRTTATLTFPGGEVRTLPRTTRVPRSLVSAG [r5_609_JUSTAS] | 2.81 ± 0.297
19 | SAGGSAGGSAGGDPKKKKGGTFTLTFKLKFTVNIPEGKVEYEFKAKIKITINEPPDFGLSSAGGSAGGSAGG [r7_485_TrMRF] | 15.9 ± 0.837
20 | SAGELTAEEIAERLRKLLEELGIEEVEVEVEEVEVEEEEEPVEEEEEEELSEEERERLRRERLEEEGLLSAG [r5_9_TrROS_Hall] | 6.67 ± 0.305
21 | SAGGSAGGSAGMKTYTAEEIKNLPPGAKVIEVDGKLKIEIDGKIYTIEPGETVEIEPLEESAGGSAGGSAGG [r17_91_TrROS_Hall] | 6.57 ± 0.326

test: folding stability dG unfold (combined trypsin and chymotrypsin); higher = more stable
Summary of the method: as §1

Row | Sequence | folding stability dG unfold [kJ/mol]
22 | SAGGSAGGSAGGGKKILGVQPELFYDPENGTLYVKTVAVGEDENGAPGDADISVEPFPLLSAGGSAGGSAGG [r7_892_TrMRF] | -1.16 ± 1.09
23 | KIKELAKKLGLNVTVKVEKKPIKNPDGSTYTITKVEVTVDKKNKTITIKVEVKNKKTNKTITKTYTIKLKKS [r1_448_TrROS_Hall] | 11 ± 1
24 | SAGGSWLPPGMWIISISIKWEMREMTFSPNGQPEMEMRLEIDIQVIKIPPPPPPPKEDAKNPNGKWSAGGSA [r2_495_TrROS] | 6.94 ± 1.46
25 | SAGGSMLEVYYRIPPDIPLEEALERVAREVEEVLRARYGGPVTVEAEEVERPPDDETLLRVLVRFESAGGSA [r2_214_TrMRF] | 9.91 ± 0.46
26 | SAGGSAGGSMFEEEEIEIERPDGTTIKVKVEILPDGTRVLTITDPKEGKTTTVTLSPNEEILLSAGGSAGGS [r20_45_JUSTAS] | 6.7 ± 0.502
27 | SAGEYVLVEVERGGKVETFVLPPELAKELLEKYSPDSEIPVKLEGREVRLRVLPIKPKEPTPEELAKAASAG [r5_669_TrMRF] | 5.9 ± 0.669
28 | SVYNPNNPNIPTKLTVTIPVPEEVVAAGDTAAAEAAAEATAAALAPEGWRVTSVSFPRETGTMTVTLTRPSA [r9_75_JUSTAS] | 5.57 ± 0.264
29 | SAGGSAGGGSFTLTEEPGGVLTITTPDKTLTVNLEGVTPDPNSDTTFSFTLSLDPDDSASVTSSSAGGSAGG [r6_202_JUSTAS] | 6.16 ± 0.418
30 | SAGGMPKYFAEVDTEPHGDKVKITLRIRDPNGVERELTFELPLSEVIKLLKELPEEFEVFELKFSDESAGGS [r16_298_TrMRF] | 11.3 ± 0.586
31 | SAGGMTITVPVDEEEAEEFIREATGELTALAEKYPDVPIEIEFPLKSGRVIRLRVYPKSKKVEIEVYDSAGG [r13_216_TrMRF] | 10.8 ± 0.188
32 | SAGGSAGGSGSSTSANAGGIVTSSSTVPLPPDTRPVSVSTSTPSSKPVKTTVLPDKTVTTPLGSAGGSAGGS [r12_994_JUSTAS] | 5.76 ± 0.201
33 | SAGPRPIEIYVDPDGMINIRFPNNGREINIPIPKGAEIEIIELPDDYIVIEIKFGGETREFWIPPEDISAGG [r19_309_TrROS] | 14.5 ± 0.318
34 | SAKRVNVEIWIPGDWDEIQEIAEDINFPVEIERNPDKPDMYRITFTFPTPEKAPKILDALNKHGMQIEISAG [r14_745_TrROS] | 6.86 ± 0.711
35 | SAGAHTVSVHYVEPGSKKLSSVETSEITLEPGEELPLDEVAARFPSENYEVTAQEEPDAITITIYVYRGSAG [r5_269_JUSTAS] | 2.29 ± 0.364
36 | SAGGSAGGMKYLDVVLHPDTGATYSSLEEIKASSSGPFQIKTGDGKWIYLPVEELSSLPTPLASSAGGSAGG [r6_685_JUSTAS] | 1.03 ± 0.272
37 | SPTQTITLTLPDRPVTVPLTAYPETGYVEITVTVTYPTGTKTYTFTVKAKSFEEVLAELSKLPEDFDINPSA [r9_713_TrMRF] | 7.72 ± 0.218
38 | SAGGSAGGSIFIHWTYEMEHERDPDDPDEPRMKMKIKDWVISIPEDDPDKLKELADKLGIPIISAGGSAGGS [r12_249_TrROS] | 5.19 ± 0.46
39 | SAGGSAGGSAKSVVRIKIYNKKTGKVLEIEIPENMTEEEIKKLAEELAKKNNVEIVEVEKVPSAGGSAGGSA [r18_322_TrROS_Hall] | 11 ± 0.502
40 | SAGGSSKTEIYYNPKKPYFLIKVTYKNGKTKEYPIKGKGMSLEELKKKAEEIVKELNSEEFKEVVFNPSAGG [r13_267_TrMRF] | 10.6 ± 0.586
41 | SAGGSAGGSAGMKVLVLRIRIERPEEELSEEDRAKLPPVRIEIELVEVELPPEVEVREEESAGGSAGGSAGG [r17_310_TrROS_Hall] | 14.3 ± 0.837
42 | SAGGKKKKIEIEIVVKKEDLEKIAEELAKKLEEAGYKVKIKKIEVEVYKNKDGKIVYVKVRIEVEVEPSAGG [r13_707_TrROS_Hall] | 19.5 ± 2.22

Row | Sequence | folding stability dG unfold [kJ/mol]
43 | SAGGSAGGSEITILIKDENGYLIKVKVELKLKKNKDGKKTLELKIEITEIYKVPSKEEAKKLLSAGGSAGGS [r12_915_TrROS_Hall] | 7.43 ± 0.92
44 | SAPLSEEEARQLLEEVAEELERETGASYRVELFRDPATGRWFGRIELPDGRVYTVTYDPATGEVTVTVEASA [r9_9_JUSTAS] | 23.5 ± 0.46
45 | SAGGAEELAKRLAEELREAGYEVEVVKVERLENGEVVITMKVRVVKDGKEVEEREIKLVLKLPEELLSAGGS [r8_102_TrROS_Hall] | 16.7 ± 0.36
46 | MYLVRIKIEYKTEDGEKVEKEITLLVEPSEEEAKEKAEELARKIAEELGLSEEEIKKIEVEVVKLGEELEES [r1_159_TrROS_Hall] | 17.9 ± 0.628
47 | SADRIKINVMTHQSPDGRPYYMVSIRIPGNGKEIMGPIDSPEDAEEQAKEIADKLEKEGIPIEVEIYPMSAG [r14_263_TrROS] | 8.13 ± 0.711
48 | SAGGGPLSPGSVPVEEEVTEVVEDPATGTVTTRSRVRYPDGVEVEVTTTTPAPGLPEVSTTEVTVRPASAGG [r13_894_JUSTAS] | 3.89 ± 0.46
49 | SAGGSAGGMKTVTTPVYAVMPEEEAEALAKELEEKYPNVEIEVEREELPDGRVRVTITVTKPLGSAGGSAGG [r6_105_JUSTAS] | 5.85 ± 0.28
50 | SAGGSAGGSAGGPKVEVTVKGKPATVEWFPEEGKARVTVPDGRVYVLDLNGDKLEIKPLSAGGSAGGSAGGS [r10_724_TrMRF] | 2.14 ± 0.418
51 | SAGGSAGGMKVYEIEVPPSSGLTPEEIRARVREEIEASNNAPVEVTVEVDPNGRLTVTIKITPLSAGGSAGG [r6_819_JUSTAS] | 6.25 ± 0.544
52 | SGMDSNPKTTTENISFEEALKRLPSSVTSVEPRGESVVIKQSSPDSLTVVTMTRDPSSDSAPATTTTYLSSA [r9_604_JUSTAS] | 1.43 ± 0.711
53 | SAGMILPPNTVVTLSTTTTEELPLFTDGSGPRTTTTETVVTVEPVPVNPYPDPAVREKLLAEGKPLELLSAG [r5_624_JUSTAS] | -1.11 ± 0.502
54 | SAGGSAGGSAGPKPPPVYRLRIVNPDGEVYEFEVPADMSPEEIAKRLGLPPGARVELEKVSAGGSAGGSAGG [r11_340_TrROS_Hall] | 13.7 ± 1.17
55 | SAGGSAMVETKTFEFEFEFEFENPDGEPATVTVPVTVEVPVLVPVAAPGPPGANGPEKELEELEKESAGGSA [r15_728_TrMRF] | 3.27 ± 0.544
56 | SAGGSAGGSAGGSIPPSDVTTEVDPNTPLTTVTYPSGVVVTETFPPDGTSTTTVDTAAGSAGGSAGGSAGGS [r10_170_JUSTAS] | 6.53 ± 0.163
57 | SAGGSAGGWIIRIHFPNGHEHTFKIKSPEEAKDRIMDHHGMPPDKIPPETIKDVEIIPPDAMKESAGGSAGG [r6_588_TrROS] | 1.82 ± 0.753
58 | SAKKVKIEIKNKETNKIYTIEIKEDGKVTIKNKETGEEIEVEINGKKITFPPGASIDEIIKKLEEALKKSAG [r14_561_TrROS_Hall] | 10.7 ± 1.3
59 | SAGGSAGGSAGGSIVIEVDTLEEAKKLAEKLNLKVTEVKEVDGKLYVKIEIKSPEELKKSAGGSAGGSAGGS [r10_218_TrROS_Hall] | 6.39 ± 0.502
60 | SAGSPATLRAQAEEEARALAAELGAEVTVDVTVEPVPGEYVVRTTATLTFPGGEVRTLPRTTRVPRSLVSAG [r5_609_JUSTAS] | 3.99 ± 0.335
61 | SAGGSAGGSAGGDPKKKKGGTFTLTFKLKFTVNIPEGKVEYEFKAKIKITINEPPDFGLSSAGGSAGGSAGG [r7_485_TrMRF] | 23.7 ± 1.26
62 | SAGELTAEEIAERLRKLLEELGIEEVEVEVEEVEVEEEEEPVEEEEEEELSEEERERLRRERLEEEGLLSAG [r5_9_TrROS_Hall] | 8.02 ± 0.502
63 | SAGGSAGGSAGMKTYTAEEIKNLPPGAKVIEVDGKLKIEIDGKIYTIEPGETVEIEPLEESAGGSAGGSAGG [r17_91_TrROS_Hall] | 7.9 ± 0.46
